Here are results for one molecule from PMC4639866.

The target of this assay is GST::BubR1 [1–337] (Drosophila). Briefly: pull-down.

B1: GFP::Fzy-DYY* (natural protein)
chain: MSQFNFVSDLQNALIMDGETRGPAPRWKKKLEASLNGSVNTTRSVLSVSYNTSFSGVQAPTKTPGKSSEGKTKKSNTTPSKTPGGGDRFIPNRAATNFELAHFLVNKDSGDKSDEENDKATSSNSNESNVQASAHKGDRQKLISEVAQVGDSKGGRILCYQNKAPAAPETHNNPLKVVYSIKTPISTKSGSRYIPTTSERILDAPDFINAAALNLMDWSADNIVAVALGSCVYLWNAQTGNIEQLTEFEEGDYAGSLSWIQEGQILAIGNSTGAVELWDCSKVKRLRVMDGHSARVGSLAWNSFLVSSGSRDGTIVHHDVRAREHKLSTLSGHTQEVCGLKWSTDFKYLASGGNDNLVNVWSAASGGVGTATDPLHKFNDHQAAVRALAWCPWQPSTLASGGGTADRCIKFWNVNNGTLMKSVDSKSQVCSLLFSRHYKELISAHGFANNQLTIWKYPTMVKQADLTGHTSRVLQMAMSPDGSTVISAGADETLRLWNCFAPDPLASKKAVSTSKGKQSVFRQSIR
Take B1: the decrease of in vitro binding efficiency against wild-type Fzy came out at 50%.
